The assay has as its target T1, octanoyl-AcpP (C8-AcpP), E. coli acyl carrier protein (E. coli, UniProt P0A6A8 2-78, octanoyl pantethenamide probe loaded (stable C8 acyl analog); uniformly 15N labeled and perdeuterated).
T1 construct: acyl carrier protein AcpP, E. coli; PDB 2FAD is heptanoyl-AcpP, used for docking only; also called 15N-C8-AcpP; source: E. coli BL21 (DE3), M9 minimal media with 15N NH4Cl and D2O, purified; made apo with P. aeruginosa ACPH, then loaded with CoaA, CoaD, CoaE and Sfp
Description: NMR titration; 1H-15N HSQC of 15N, perdeuterated C8-AcpP titrated with unlabeled partner, at least five points; 37 °C; 10 mM potassium phosphate pH 7.4, 0.5 mM TCEP, 0.1% NaN3; TITAN 2D lineshape analysis, flexible stoichiometry model. The following applies: both partners purified.

T1 sequence (P0A6A8 2-78): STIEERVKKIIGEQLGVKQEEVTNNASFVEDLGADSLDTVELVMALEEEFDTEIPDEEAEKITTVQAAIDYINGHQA

B1: FabF, E. coli elongating ketosynthase (enzyme)
chain: SKRRVVVTGLGMLSPVGNTVESTWKALLAGQSGISLIDHFDTSAYATKFAGLVKDFNCEDIISRKEQRKMDAFIQYGIVAGVQAMQDSGLEITEENATRIGAAIGSGIGGLGLIEENHTSLMNGGPRKISPFFVPSTIVNMVAGHLTIMYGLRGPSISIATACTSGVHNIGHAARIIAYGDADVMVAGGAEKASTPLGVGGFGAARALSTRNDNPQAASRPWDKERDGFVLGDGAGMLVLEEYEHAKKRGAKIYAELVGFGMSSDAYHMTSPPENGAGAALAMANALRDAGIEASQIGYVNAHGTSTPAGDKAEAQAVKTIFGEAASRVLVSSTKSMTGHLLGAAGAVESIYSILALRDQAVPPTINLDNPDEGCDLDFVPHEARQVSGMEYTLCNSFGFGGTNGSLIFKKI
notes: ketosynthase FabF (3-oxoacyl-ACP synthase 2), E. coli; also called KS; source: E. coli BL21 (DE3), purified (Ni-IMAC, Superdex 75)
Usually stoichiometry N stands for a count of units in the complex or per binding partner. Turning to B1, the “stoichiometry N” value was about 1.

The values are drawn from paper PMC7966745, “Elucidation of transient protein-protein interactions within carrier protein-dependent biosynthesis” (Communications Biology, 2021).
